Measured values published in patent US8765721B2, “Composition comprising phosphatidyl serine and an antigen or allergen and the use thereof” (Vaccine Technology Limited, priority 2004, dated 2014).

How the values were obtained:
Assay type in all cases: in vivo, rat
Conditions in all cases: no phosphatidyl serine, pooled group serum
IgG2b = experiment: Ovalbumin-specific IgG2b ELISA of serum of immunised rats
Procedure: (§1) Rats were injected with vaccine compositions comprising the ovalbumin antigen with and without di-oleoyl phosphatidyl serine, lyso-oleoyl phosphatidyl serine or stearoyl(X1)-arachidonoyl(X2) phosphatidyl serine and the concentrations of IgE, IgA and IgG are compared.
(§2) The animals were acclimatised for a period of 5 days prior to dosing. During the acclimatisation period animals were observed twice daily during the working week and once on each day during the weekend to evaluate the health status of the animals. Rats were then allocated to the following dose groups using computer-generated random order numbers.
(§3) On day 0, 20 μg of ovalbumin (OA) in phosphate buffered saline (PBS) with alhydrogel (AHG) adjuvant in a final volume of 0.5 mL was administered.
(§4) On days 21 and 42, 20 μg of ovalbumin (OA) in phosphate buffered saline (PBS) with the relevant test compound in a final volume of 0.5 ml was administered.
(§5) In each case, 0.5 mL of inoculum was injected subcutaneously into the scruff of the neck.
(§6) […] A blood sample was also taken from each animal on Days 15, 22, 29, 36, 43, 50, 57 and 64.
(§7) Serum was prepared by centrifugation of the blood sample at 2,500 rpm for 10 minutes and frozen at −20° C. The samples were then analysed by ELISA to establish the concentration of IgE, IgA and IgG1, IgG2a and IgG2b.
(§8) The purpose of an ELISA is to determine whether a particular protein is present in a sample and then enables quantification of how much is present. By coating the bottom of wells with ovalbumin (OVA) it is possible to bind anti-OVA specific antibodies. To detect only anti-OVA IgA antibodies anti-rat IgA conjugated to HRP was used as a secondary antibody. Quantification of specific antibodies in the rat sera samples was performed using antibody titrations. The data was reported as endpoint titers. Endpoint titers are defined as the last serum dilution giving an optical density value equal to twice the background optical density for the ELISA plate (buffer).

IgA = experiment: Ovalbumin-specific IgA ELISA of serum of immunised rats
Procedure: as §1, §2, §3, §4, §5
On Day 0 a pre-inoculation blood sample was taken. A blood sample was also taken from each animal on Days 15, 22, 29, 36, 43, 50, 57 and 64.
as §7, §8

IgG2a = experiment: Ovalbumin-specific IgG2a ELISA of serum of immunised rats
Procedure: as §1, §2, §3, §4
(§9) In each case, 0.5 mL of inoculum was injected subcutaneously into the scruff of the neck. […]
as §7, §8

IgG1 = experiment: Ovalbumin-specific IgG1 ELISA of serum of immunised rats
Procedure: as §1, §2, §3, §4, §9, §7
The purpose of an ELISA is to determine whether a particular protein is present in a sample and then enables quantification of how much is present. By coating the bottom of wells with ovalbumin (OVA) it is possible to bind anti-OVA specific antibodies. […] Quantification of specific antibodies in the rat sera samples was performed using antibody titrations. The data was reported as endpoint titers. Endpoint titers are defined as the last serum dilution giving an optical density value equal to twice the background optical density for the ELISA plate (buffer).

IgE = experiment: Ovalbumin-specific IgE ELISA of serum of immunised rats
Procedure: as §1, §2, §3, §4, §5, §6, §7, §8

B1: ovalbumin (protein, UniProt P01012 2-386, looked up)
Ovalbumin: GSIGAASMEFCFDVFKELKVHHANENIFYCPIAIMSALAMVYLGAKDSTRTQINKVVRFDKLPGFGDSIEAQCGTSVNVHSSLRDILNQITKPNDVYSFSLASRLYAEERYPILPEYLQCVKELYRGGLEPINFQTAADQARELINSWVESQTNGIIRNVLQPSSVDSQTAMVLVNAIVFKGLWEKAFKDEDTQAMPFRVTEQESKPVQMMYQIGLFRVASMASEKMKILELPFASGTMSMLVLLPDEVSGLEQLESIINFEKLTEWTSSNVMEERKIKVYLPRMKMEEKYNLTSVLMAMGITDVFSSSANLSGISSAESLKISQAVHAAHAEINEAGREVVGSAEAGVDAASVSEEFRADHPFLFCIKHIATNAVLFFGRCVSP
notes: Group 2: ovalbumin antigen, 20 μg on days 21 and 42 without phosphatidyl serine, after Ova + Alh on day 0
- IgG2b endpoint titer (IgG2b; Day 1): 0
- IgG2b endpoint titer (IgG2b; Day 15): 1280
- IgG2b endpoint titer (IgG2b; Day 22): 640
- IgG2b endpoint titer (IgG2b; Day 29): 640
- IgG2b endpoint titer (IgG2b; Day 36): 640
- IgG2b endpoint titer (IgG2b; Day 43): 640
- IgG2b endpoint titer (IgG2b; Day 50): 640
- IgG2b endpoint titer (IgG2b; Day 57): 5120
- IgG2b endpoint titer (IgG2b; Day 64): 5120
- IgA endpoint titer (IgA; Day 1): 0
- IgA endpoint titer (IgA; Day 15): 0
- IgA endpoint titer (IgA; Day 22): 0
- IgA endpoint titer (IgA; Day 29): 80
- IgA endpoint titer (IgA; Day 36): 320
- IgA endpoint titer (IgA; Day 43): 320
- IgA endpoint titer (IgA; Day 50): 640
- IgA endpoint titer (IgA; Day 57): 1280
- IgA endpoint titer (IgA; Day 64): 640
- IgG2a endpoint titer (IgG2a; Day 1): 0
- IgG2a endpoint titer (IgG2a; Day 15): 640
- IgG2a endpoint titer (IgG2a; Day 22): 1280
- IgG2a endpoint titer (IgG2a; Day 29): 1280
- IgG2a endpoint titer (IgG2a; Day 36): 2560
- IgG2a endpoint titer (IgG2a; Day 43): 5120
- IgG2a endpoint titer (IgG2a; Day 50): 20480
- IgG2a endpoint titer (IgG2a; Day 57): 20480
- IgG2a endpoint titer (IgG2a; Day 64): 10240
- IgG1 endpoint titer (IgG1; Day 1): 0
- IgG1 endpoint titer (IgG1; Day 15): 320
- IgG1 endpoint titer (IgG1; Day 22): 2560
- IgG1 endpoint titer (IgG1; Day 29): 10240
- IgG1 endpoint titer (IgG1; Day 36): 20480
- IgG1 endpoint titer (IgG1; Day 43): 10240
- IgG1 endpoint titer (IgG1; Day 50): 10240
- IgG1 endpoint titer (IgG1; Day 57): 10240
- IgG1 endpoint titer (IgG1; Day 64): 20480
- IgE endpoint titer (IgE; Day 1): 0
- IgE endpoint titer (IgE; Day 15): 0
- IgE endpoint titer (IgE; Day 22): 0
- IgE endpoint titer (IgE; Day 29): 0
- IgE endpoint titer (IgE; Day 36): 20
- IgE endpoint titer (IgE; Day 43): 20
- IgE endpoint titer (IgE; Day 50): 640
- IgE endpoint titer (IgE; Day 57): 80
- IgE endpoint titer (IgE; Day 64): 40
